From the supplement of paper PMC9732359 come the findings set out here.

± gives the uncertainty stated by the source.

This series is described as follows: protein stability index of a GFP-peptide fusion (yeast GPS) (PSI 1-4); higher = more stable; sorted into four equal gates, so the index is relative within each strain. In outline:
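Mid-log yeast cultures in leucine-free medium, carrying a pooled plasmid library, were sorted into four equal gates by their GFP/Cherry fluorescence ratio. Each plasmid expressed Cherry along with GFP fused upstream of a tiled 17-residue yeast protein peptide. Plasmids recovered from each gate were PCR-amplified and Illumina-sequenced, with reads assigned to strains by barcodes. The protein stability index was obtained by summing each gate's read frequency weighted by its gate number.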

As for TALKQYEKELMGDELTR [RPN6], the protein stability index by setting is: (doa10∆) 3.26 ± 0.13; (pdr5∆) 3.54 ± 0.15; (san1∆) 3.42 ± 0.077; (ubr1∆) 3.51 ± 0.12.
In the same order, the values of VDPFTRKEWFDIKAPST [RPS1A] are 2.38 ± 0.072, 2.57 ± 0.067, 2.55 ± 0.045 and 2.89 ± 0.06.
On to TNVNPSKNFNVILASSL [YML103C/NUP188], for which the protein stability index turned out to be 1.82 ± 0.05 (doa10∆), 2.16 ± 0.048 (pdr5∆), 1.99 ± 0.08 (san1∆) and 1.91 ± 0.045 (ubr1∆).
Take RAVFLFRCKETHSYNFM [RPC82]: the protein stability index is, setting by setting: (doa10∆) 2.19 ± 0.058; (pdr5∆) 2.02 ± 0.084; (san1∆) 1.98 ± 0.091; (ubr1∆) 2.47 ± 0.063.
As for IFISSDHEFVLISLIMT [YMR129W/POM152], the protein stability index reads like this: (doa10∆) 1.3 ± 0.13; (pdr5∆) 1.24 ± 0.071; (san1∆) 2.01 ± 0.16; (ubr1∆) 1.61 ± 0.29.
The sequence NINNNINSTKNGKDNNN [MED2] had a protein stability index (doa10∆) of 3.28 ± 0.068, a protein stability index (pdr5∆) of 3.26 ± 0.053, a protein stability index (san1∆) of 3.24 ± 0.045 and a protein stability index (ubr1∆) of 3.35 ± 0.041.
For FFSSDWRFLQILRNGID [POP1] the same measures were 2.29 ± 0.073, 2.27 ± 0.088, 2.5 ± 0.1 and 2.18 ± 0.072.
Take KRELKQLLEKAPIPIRE [BRR2]: the protein stability index stood at 1.94 ± 0.05 (doa10∆), 2.22 ± 0.053 (pdr5∆), 1.99 ± 0.13 (san1∆) and 1.91 ± 0.061 (ubr1∆).
As for MLKPNIIFQQLLFWTDP [YCG1], the protein stability index (doa10∆) amounted to 2.42 ± 0.099, the protein stability index (pdr5∆) worked out at 2.28 ± 0.076, the protein stability index (san1∆) is 1.21 ± 0.093 and the protein stability index (ubr1∆) was 1.68 ± 0.12.
As to DDLQSSVIPEVDREAML [YCG1], the protein stability index by setting is: (doa10∆) 2.63 ± 0.085; (pdr5∆) 2.71 ± 0.081; (san1∆) 2.48 ± 0.12; (ubr1∆) 2.4 ± 0.078.
ALETENMEIRNLRLKIL [GRR1]: the protein stability index is, setting by setting: (doa10∆) 3.14 ± 0.065; (pdr5∆) 2.9 ± 0.043; (san1∆) 2.82 ± 0.052; (ubr1∆) 2.7 ± 0.03.
In the same order, the values of ISKNPSNGIFYGPSFTK [SIR2] are 2.94 ± 0.071, 3.03 ± 0.054, 2.76 ± 0.059 and 3.15 ± 0.039.
Consider LRLCLDIVPYFLKHNGE [RPN1], for which the protein stability index runs as follows: (doa10∆) 2.3 ± 0.063; (pdr5∆) 2.01 ± 0.037; (san1∆) 1.71 ± 0.082; (ubr1∆) 2.52 ± 0.074.
In turn, PQIAQLPLATQQQVLNK [SNF5] returned a protein stability index (doa10∆) of 1.94 ± 0.074, a protein stability index (pdr5∆) of 2.3 ± 0.075, a protein stability index (san1∆) of 2 ± 0.13 and a protein stability index (ubr1∆) of 2.17 ± 0.068.
In turn, NREAATKEVESNIITKS [DIS3] returned a protein stability index (doa10∆) of 2.79 ± 0.11, a protein stability index (pdr5∆) of 2.94 ± 0.064, a protein stability index (san1∆) of 2.79 ± 0.074 and a protein stability index (ubr1∆) of 2.87 ± 0.089.
In turn, VITNLFSAIPFVGNDIV [COB] showed a protein stability index (doa10∆) of 3.14 ± 0.05, a protein stability index (pdr5∆) of 3.12 ± 0.053, a protein stability index (san1∆) of 3.14 ± 0.034 and a protein stability index (ubr1∆) of 3.13 ± 0.036.
For ELRSLSKKDFKIIDNPK [YMR129W/POM152] the same measures were 2.46 ± 0.058, 2.6 ± 0.06, 2.24 ± 0.081 and 2.93 ± 0.07.
MLDKLMVTSIRSTPNYI [MED6]: the protein stability index was 2.4 ± 0.064 (doa10∆), 2.52 ± 0.061 (pdr5∆), 2.43 ± 0.098 (san1∆) and 2.66 ± 0.05 (ubr1∆).
For LTVYLEPGHAADQEQAK [RPO21] the same measures were 2.96 ± 0.14, 2.68 ± 0.1, 3.05 ± 0.081 and 3.13 ± 0.083.
For the sequence AIIDKNTGLTFKKNLQV [PRE4], the protein stability index by setting is: (doa10∆) 3.22 ± 0.081; (pdr5∆) 2.79 ± 0.076; (san1∆) 2.79 ± 0.11; (ubr1∆) 3.35 ± 0.082.
On to IKTFFTQKDSARVSPRN [YAR002W/NUP60], for which the protein stability index is, setting by setting: (doa10∆) 3.22 ± 0.097; (pdr5∆) 3.49 ± 0.1; (san1∆) 3.18 ± 0.086; (ubr1∆) 3.02 ± 0.064.
In the same order, the values of SKKKKNIKKKDTKDALS [RPC53] are 3.3 ± 0.17, 3.5 ± 0.14, 3.21 ± 0.089 and 3.3 ± 0.21.
Take LGKYDLTVIEKLDSKKI [SRP68]: the protein stability index by setting is: (pdr5∆) 2.86 ± 0.23; (san1∆) 3.53 ± 0.12; (ubr1∆) 3.63 ± 0.16.
For NNSKSRYPMNLLEFIID [ECM29], the protein stability index came to 2.5 ± 0.086 (doa10∆), 2.69 ± 0.052 (pdr5∆), 2.64 ± 0.075 (san1∆) and 2.92 ± 0.097 (ubr1∆).
For LDSDSENDLSFALMRYY [RRI2] the same measures were 2.8 ± 0.068, 2.89 ± 0.063, 2.85 ± 0.057 and 2.91 ± 0.047.
On to VILGDANSSTIRVTNSF [RPN8], for which the protein stability index by setting is: (doa10∆) 3.01 ± 0.092; (pdr5∆) 2.94 ± 0.072; (san1∆) 2.89 ± 0.066; (ubr1∆) 3.06 ± 0.052.
